Laboratory results as given in patent US20180155451A1 (published 2018).

T1: FcγRIIb extracellular domain with C-terminal His tag (human, UniProt P31994 43-217)
T1 construct: extracellular domain; Soluble receptor expressed in FreeStyle293 cells, used as analyte in Biacore; also called FcgRIIb; 2b; not shown: His tag at the C terminus
T1 sequence (looked up): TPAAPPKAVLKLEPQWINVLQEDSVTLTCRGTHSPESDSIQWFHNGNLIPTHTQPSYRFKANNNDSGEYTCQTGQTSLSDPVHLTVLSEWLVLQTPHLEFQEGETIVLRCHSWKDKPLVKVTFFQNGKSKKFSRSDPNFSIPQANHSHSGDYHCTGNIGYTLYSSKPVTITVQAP

B1: GpH7-A5/GpH7-B3 variant P331_03V/GpL16-k0 (antibody, human IgG1, kappa)
heavy 1: not shown
heavy 2: not shown
light: DIVMTQSPLSLPVTPGEPASISCQASESLVHSNRNTYLHWYLQKPGQSPQLLIYKVSNRFSGVPDRFSGSGSGTDFTLKISRVEAEDVGVYYCSQNTHVPPTFGQGTKVEIERTVAAPSVFIFPPSDEQLKSGTASVVCLLNNFYPREAKVQWKVDNALQSGNSQESVTEQDSKDSTYSLSSTLTLSKADYEKHKVYACEVTHQGLSSPVTKSFNRGEC
notes: Heterodimerized anti-glypican-3 IgG1; P331V (EU) only in the GpH7-B3 chain; also called He Ab
B2: GpH7-A5/GpH7-B3 variant I332_11K/GpL16-k0 (antibody, human IgG1, kappa)
heavy 1: not shown
heavy 2: not shown
light: B1 light
notes: Heterodimerized anti-glypican-3 IgG1; I332K (EU) only in the GpH7-B3 chain; also called He Ab
B3: GpH7-A5/GpH7-B3 variant L328_06M/GpL16-k0 (antibody, human IgG1, kappa)
heavy 1: not shown
heavy 2: not shown
light: B1 light
notes: Heterodimerized anti-glypican-3 IgG1; L328M (EU) only in the GpH7-B3 chain; also called He Ab
B4: GpH7-A5/GpH7-B3 variant L328_07I/GpL16-k0 (antibody, human IgG1, kappa)
heavy 1: not shown
heavy 2: not shown
light: B1 light
notes: Heterodimerized anti-glypican-3 IgG1; L328I (EU) only in the GpH7-B3 chain; also called He Ab
B5: GpH7-A5/GpH7-B3 variant L328_09D/GpL16-k0 (antibody, human IgG1, kappa)
heavy 1: not shown
heavy 2: not shown
light: B1 light
notes: Heterodimerized anti-glypican-3 IgG1; L328D (EU) only in the GpH7-B3 chain; also called He Ab
B6: GpH7-A5/GpH7-B3 variant L328_10E/GpL16-k0 (antibody, human IgG1, kappa)
heavy 1: not shown
heavy 2: not shown
light: B1 light
notes: Heterodimerized anti-glypican-3 IgG1; L328E (EU) only in the GpH7-B3 chain; also called He Ab
B7: GpH7-A5/GpH7-B3 variant L328_13S/GpL16-k0 (antibody, human IgG1, kappa)
heavy 1: not shown
heavy 2: not shown
light: B1 light
notes: Heterodimerized anti-glypican-3 IgG1; L328S (EU) only in the GpH7-B3 chain; also called He Ab
B8: GpH7-A5/GpH7-B3 variant L328_14T/GpL16-k0 (antibody, human IgG1, kappa)
heavy 1: not shown
heavy 2: not shown
light: B1 light
notes: Heterodimerized anti-glypican-3 IgG1; L328T (EU) only in the GpH7-B3 chain; also called He Ab
B9: GpH7-A5/GpH7-B3 variant L328_16H/GpL16-k0 (antibody, human IgG1, kappa)
heavy 1: not shown
heavy 2: not shown
light: B1 light
notes: Heterodimerized anti-glypican-3 IgG1; L328H (EU) only in the GpH7-B3 chain; also called He Ab
B10: GpH7-A5/GpH7-B3 variant L328_18N/GpL16-k0 (antibody, human IgG1, kappa)
heavy 1: not shown
heavy 2: not shown
light: B1 light
notes: Heterodimerized anti-glypican-3 IgG1; L328N (EU) only in the GpH7-B3 chain; also called He Ab
B11: GpH7-A5/GpH7-B3 variant L328_19Q/GpL16-k0 (antibody, human IgG1, kappa)
heavy 1: not shown
heavy 2: not shown
light: B1 light
notes: Heterodimerized anti-glypican-3 IgG1; L328Q (EU) only in the GpH7-B3 chain; also called He Ab
B12: GpH7-A5/GpH7-B3 variant L328_20W/GpL16-k0 (antibody, human IgG1, kappa)
heavy 1: not shown
heavy 2: not shown
light: B1 light
notes: Heterodimerized anti-glypican-3 IgG1; L328W (EU) only in the GpH7-B3 chain; also called He Ab
B13: GpH7-A5/GpH7-B3 variant P329_20W/GpL16-k0 (antibody, human IgG1, kappa)
heavy 1: not shown
heavy 2: not shown
light: B1 light
notes: Heterodimerized anti-glypican-3 IgG1; P329W (EU) only in the GpH7-B3 chain; also called He Ab
B14: GpH7-A5/GpH7-B3 variant P331_04F/GpL16-k0 (antibody, human IgG1, kappa)
heavy 1: not shown
heavy 2: not shown
light: B1 light
notes: Heterodimerized anti-glypican-3 IgG1; P331F (EU) only in the GpH7-B3 chain; also called He Ab
B15: GpH7-A5/GpH7-B3 variant P331_07I/GpL16-k0 (antibody, human IgG1, kappa)
heavy 1: not shown
heavy 2: not shown
light: B1 light
notes: Heterodimerized anti-glypican-3 IgG1; P331I (EU) only in the GpH7-B3 chain; also called He Ab
B16: GpH7-A5/GpH7-B3 variant P331_14T/GpL16-k0 (antibody, human IgG1, kappa)
heavy 1: not shown
heavy 2: not shown
light: B1 light
notes: Heterodimerized anti-glypican-3 IgG1; P331T (EU) only in the GpH7-B3 chain; also called He Ab
B17: GpH7-A5/GpH7-B3 variant P331_15Y/GpL16-k0 (antibody, human IgG1, kappa)
heavy 1: not shown
heavy 2: not shown
light: B1 light
notes: Heterodimerized anti-glypican-3 IgG1; P331Y (EU) only in the GpH7-B3 chain; also called He Ab

biological target: T2, FcγRIIIa extracellular domain with C-terminal His tag (human, UniProt P08637 17-208); experiment: SPR; He/Con_3a divided by He/Con_2b (FcγRIIIa over FcγRIIb)
T2 construct: extracellular domain; also called FcgRIIIa; 3a; not shown: His tag at the C terminus
T2 sequence (P08637 17-208): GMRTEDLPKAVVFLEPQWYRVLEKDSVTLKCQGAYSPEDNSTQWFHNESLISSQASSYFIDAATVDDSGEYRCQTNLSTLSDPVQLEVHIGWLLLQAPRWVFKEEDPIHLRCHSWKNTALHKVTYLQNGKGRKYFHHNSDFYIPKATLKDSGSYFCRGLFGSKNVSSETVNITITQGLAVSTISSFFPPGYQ
Protocol: (§1) Analysis of interaction between objective antibody and the FcγR was carried out using Biacore T100 (GE Healthcare). HBS-EP+ (GE Healthcare) was used as the running buffer, and the measurement temperature was set to 25° C. Chips produced by immobilizing the antigen peptide by the amine coupling method to a Series S Sencor Chip CM5 (GE Healthcare), or alternatively, chips produced by allowing preliminarily biotinylated antigen peptides to interact with and immobilize onto a Series S Sensor Chip SA (certified) (GE Healthcare) were used. Antibodies of interest were captured onto an antigen peptide-immobilized chip, and allowed to interact to each FcγR diluted with running buffer. To regenerate and repeatedly use the chip, the antibodies captured on the chip were washed off by reacting 10 mM glycine-HCl, pH 1.5.
(§2) The FcγR-binding activity of each antibody was assessed primarily using as an indicator the FcγR-binding activity and dissociation constant for FcγR.

First: B1
Second: B2
The “He_3a/2b (IIIa/IIb)” value of the first is lower: 0.62 ratio for the first, 0.64 ratio for the second.

First: B3
Second: B4
The “He_3a/2b (IIIa/IIb)” value of the first is higher: 0.56 ratio for the first, 0.52 ratio for the second.

Compared with B5, B6 is higher in “He_3a/2b (IIIa/IIb)” value: 0.24 ratio for the first, 0.31 ratio for the second.

First: B7
Second: B8
The “He_3a/2b (IIIa/IIb)” value of the first is lower: 0.48 ratio for the first, 0.53 ratio for the second.

Compared with B9, B10 is lower in “He_3a/2b (IIIa/IIb)” value: 0.67 ratio for the first, 0.61 ratio for the second.

Going from B11 to B12, the “He_3a/2b (IIIa/IIb)” value falls from 0.77 ratio to 0.16 ratio.

B13 and B14 are the same in “He_3a/2b (IIIa/IIb)” value: 0.7 ratio for the first, 0.7 ratio for the second.

Going from B15 to B16, the “He_3a/2b (IIIa/IIb)” value rises from 0.58 ratio to 0.74 ratio.

In the case of B17, the “He_3a/2b (IIIa/IIb)” value is reported as 0.72 ratio.

biological target: T1, FcγRIIb extracellular domain with …; experiment: SPR (Biacore), antibody captured on antigen peptide chip, FcγR as analyte
Protocol: as §1, §2

Compared with B1, B2 is lower in He/Con_2b: 119 relative binding (GpH7-A5/GpH7-B3/GpL16-k0 = 100) for the first, 70.9 relative binding (GpH7-A5/GpH7-B3/GpL16-k0 = 100) for the second.

Going from B3 to B4, the He/Con_2b rises from 142 relative binding (GpH7-A5/GpH7-B3/GpL16-k0 = 100) to 160 relative binding (GpH7-A5/GpH7-B3/GpL16-k0 = 100).

First: B5
Second: B6
The He/Con_2b of the first is higher: 199 relative binding (GpH7-A5/GpH7-B3/GpL16-k0 = 100) for the first, 172 relative binding (GpH7-A5/GpH7-B3/GpL16-k0 = 100) for the second.

Going from B7 to B8, the He/Con_2b falls from 149 relative binding (GpH7-A5/GpH7-B3/GpL16-k0 = 100) to 141 relative binding (GpH7-A5/GpH7-B3/GpL16-k0 = 100).

Going from B9 to B10, the He/Con_2b rises from 80.6 relative binding (GpH7-A5/GpH7-B3/GpL16-k0 = 100) to 80.8 relative binding (GpH7-A5/GpH7-B3/GpL16-k0 = 100).

Going from B11 to B12, the He/Con_2b rises from 105 relative binding (GpH7-A5/GpH7-B3/GpL16-k0 = 100) to 235 relative binding (GpH7-A5/GpH7-B3/GpL16-k0 = 100).

Going from B13 to B14, the He/Con_2b rises from 45.1 relative binding (GpH7-A5/GpH7-B3/GpL16-k0 = 100) to 110 relative binding (GpH7-A5/GpH7-B3/GpL16-k0 = 100).

Compared with B15, B16 is lower in He/Con_2b: 114 relative binding (GpH7-A5/GpH7-B3/GpL16-k0 = 100) for the first, 99.8 relative binding (GpH7-A5/GpH7-B3/GpL16-k0 = 100) for the second.

For B17, the He/Con_2b was 114 relative binding (GpH7-A5/GpH7-B3/GpL16-k0 = 100).

biological target: T2, FcγRIIIa extracellular domain with …; experiment: as above
Protocol: as §1, §2

Going from B1 to B2, the He/Con_3a falls from 73.2 relative binding (GpH7-A5/GpH7-B3/GpL16-k0 = 100) to 45.1 relative binding (GpH7-A5/GpH7-B3/GpL16-k0 = 100).

First: B3
Second: B4
The He/Con_3a of the first is lower: 78.6 relative binding (GpH7-A5/GpH7-B3/GpL16-k0 = 100) for the first, 84 relative binding (GpH7-A5/GpH7-B3/GpL16-k0 = 100) for the second.

Going from B5 to B6, the He/Con_3a rises from 47.8 relative binding (GpH7-A5/GpH7-B3/GpL16-k0 = 100) to 53.4 relative binding (GpH7-A5/GpH7-B3/GpL16-k0 = 100).

Going from B7 to B8, the He/Con_3a rises from 71.7 relative binding (GpH7-A5/GpH7-B3/GpL16-k0 = 100) to 75.3 relative binding (GpH7-A5/GpH7-B3/GpL16-k0 = 100).

First: B9
Second: B10
The He/Con_3a of the first is higher: 54.3 relative binding (GpH7-A5/GpH7-B3/GpL16-k0 = 100) for the first, 49.7 relative binding (GpH7-A5/GpH7-B3/GpL16-k0 = 100) for the second.

First: B11
Second: B12
The He/Con_3a of the first is higher: 81.1 relative binding (GpH7-A5/GpH7-B3/GpL16-k0 = 100) for the first, 37.4 relative binding (GpH7-A5/GpH7-B3/GpL16-k0 = 100) for the second.

First: B13
Second: B14
The He/Con_3a of the first is lower: 31.7 relative binding (GpH7-A5/GpH7-B3/GpL16-k0 = 100) for the first, 77.3 relative binding (GpH7-A5/GpH7-B3/GpL16-k0 = 100) for the second.

Compared with B15, B16 is higher in He/Con_3a: 66 relative binding (GpH7-A5/GpH7-B3/GpL16-k0 = 100) for the first, 74.1 relative binding (GpH7-A5/GpH7-B3/GpL16-k0 = 100) for the second.

For B17, the He/Con_3a was 81.9 relative binding (GpH7-A5/GpH7-B3/GpL16-k0 = 100).
